# Measurements taken from PMC11224109, “Synthesis and preclinical evaluation of novel ^18F-vancomycin-based tracers for the detection of bacterial infections using positron emission tomography” (European Journal of Nuclear Medicine and Molecular Imaging, 2024).
# What was measured:
# [1] = Distribution coefficient LogD7.4, shake-flask n-octanol/PBS; format: physicochemical; details: shake-flask n-octanol/PBS pH 7.4, 500 µL each, 10 µL tracer in saline, vortexed 30 s, shaken 15 min, gamma counter, mean ± SD
# Description: The tracer distribution coefficient in n-octanol/PBS pH 7.4 (LogD7.4) was determined using a shake-flask methodology. To an Eppendorf tube containing 500 µL n-octanol and 500 µL PBS, 10 µL tracer solution in saline was added. The vial was vortexed for 30 s and placed on an Eppendorf shaker for 15 min. After incubation, layers were separated by centrifugation (1 min at 10.000 rpm) and a fraction of the n-octanol layer was pipetted off. To minimize contamination of the bottom layer with the n-octanol layer, the bottom PBS layer was collected by puncturing the bottom of the Eppendorf tube with a 22G needle and aspirating a fraction of the PBS layer. Collected fractions were weighted to correct for collected volume and subsequently measured on a calibrated gamma counter and corrected for decay. LogD7.4 was calculated as [drawing 1] .
# [2] = system: S. aureus; test: In vitro tracer binding to S. aureus; parameters: species or system Staphylococcus aureus; details: clinical isolate, culture OD600 about 3.0, 37 °C, sampled at 0, 15 and 30 min, washed twice, gamma counter
# Description: (§1) Single colonies of clinical S. aureus and E. coli isolates were used to inoculate TSB and incubated overnight. From the overnight cultures, fresh cultures were started and grown to an optical density at 600 nm (OD600) of approximately 3.0. Both strains were incubated with tracer (3.5 MBq in 1 mL 0.9% saline) in a water bath at 37 °C. The final tracer concentration was 120 kBq ± 28 (38.6 pg ± 9.1 and 0.5 pg ± 0.1 of [^18F]BODIPY-FL-vancomycin and [^18F]PQ-VE1-vancomycin, respectively) per mL culture. At fixed time intervals (0, 15 and 30 min), aliquots were collected (2.0 mL in a 2 mL Eppendorf tube) and washed twice with sterile PBS (1.0 mL per washing step). In each washing step, the bacteria were pelleted by centrifugation (10.000 rpm, 60 s) and resuspended in fresh PBS. […] Measurements were corrected for background and decay. Results are reported as counts per s (Bq). To correlate bound tracer with the number of bacteria in a sample, the bacterial suspensions (2 ×) were plated and CFUs were counted.
# [3] = system: E. coli; test: In vitro tracer binding to E. coli; parameters: species or system Escherichia coli; details: clinical isolate, culture OD600 about 3.0, 37 °C, sampled at 0, 15 and 30 min, washed twice, gamma counter
# Description: as §1
# [4] = Biodistribution in vivo and PET in healthy mice; details: in vivo; for tissue uptake at 0.5 h / tissue uptake at 1 h: male, C57BL/6, mouse, 2 MBq, total radioactivity, Biodistribution, healthy male C57BL/6 mice, penile vein injection, gamma counter, mean of n = 3; for tissue uptake at 0.5 h: 30 min; for tissue uptake at 1 h: 60 min
# Description: All murine experiments were approved by the Animal Care and Use Committee of the University of Groningen under license protocol number 2114768-01-001. In vivo biodistribution was performed in male C57BL/6 mice (age 8 weeks, 25 g). Per tracer, the animals were divided in three groups based on the tracer distribution times (30 min, 60 min, and 90 min). […] Each experimental arm (i.e. time point) consisted of three animals. […] Tracer was administered at t = 0 via penile vein injection (2.0 ± 0.9 MBq in 100 µL 0.9% saline solution, Supplemental Table 2). After tracer administration, the animals were transferred to a Siemens Focus 220 microPET small animal scanner (Siemens, Munich, Germany) and scanned for the designated time, followed by a transmission scan of 10 min for attenuation correction. PET data were normalized and corrected for decay, after which the PET data were reconstructed using OSEM2D-Z1-SC-256. The PET data frames used for reconstruction were: 6 × 10 s, 4 × 30 s, 2 × 60 s, 120 s, 180 s, 4 × 300 s, 3 × 600 s, 1200 s or until the designated scan time was reached, taking into account a 10-min transmission scan following the emission scan. Next, animals were terminated, and organs harvested to assay biodistribution in a calibrated gamma counter (Wizard2, Perkin Elmer, Waltham, United States).
# [5] = Summary of tracer stability in vitro and in vivo
# Description: Stability of the tracers was determined in PBS and human plasma. In a typical experiment, 1 MBq of radioactivity (10–20 µL) was added to 250 µL of PBS or human plasma. Samples were heated to 37 °C on a shaker and sampled at fixed intervals. For samples containing human plasma, protein was precipitated using two volumes of cold MeCN. Precipitated samples were briefly centrifuged to pellet the insoluble fraction and supernatant was used for stability assessment. Supernatant (1 µL) was loaded on a TLC plate and imaged using BAS-IP MS 2025 E plates (Fujifilm, Tokyo, Japan) on an Amersham Typhoon Biomolecular Imager (GE Healthcare Bio-Sciences Corp, Chicago, United States) equipped with a phosphor imaging stage. [^18F]BODIPY-FL-vancomycin has an Rf of 0.68 (petroleum ether/MeOH 3:1), [^18F]FB-vancomycin has an Rf of 0.66 (2 M NaOAc/MeOH 5:1). For [^18F]PQ-VE1-vancomycin, conditions described in [44] were used.
compound,measurement,setting,value
CC(C)C[C@H](C(=O)N[C@H]1C(=O)N[C@@H](CC(N)=O)C(=O)N[C@H]2C(=O)N[C@H]3C(=O)N[C@H](C(=O)N[C@H](C(=O)O)c4cc(O)cc(O)c4-c4cc3ccc4O)[C@H](O)c3ccc(c(Cl)c3)Oc3cc2cc(c3O[C@@H]2O[C@H](CO)[C@@H](O)[C@H](O)[C@H]2O[C@H]2C[C@](C)(N)[C@H](O)[C@H](C)O2)Oc2ccc(cc2Cl)[C@H]1O)N(C)C(=O)c1ccc(F)cc1 [[^18F]FB-vancomycin],LogD7.4,[1],-0.96 ± 0.03 (n = 12)
same,Binding to S. aureus,[2],no bacterial binding was observed
same,Binding to E. coli,[3],no bacterial binding was observed
same,tissue uptake at 0.5 h,"[4]; iv, Bladder",21.8 %ID/g
same,tissue uptake at 1 h,"[4]; iv, Bladder",18.5 %ID/g
same,tissue uptake at 0.5 h,"[4]; iv, Bone",0.06 %ID/g
same,tissue uptake at 1 h,"[4]; iv, Bone",0.04 %ID/g
same,tissue uptake at 0.5 h,"[4]; iv, Brain",0.05 %ID/g
same,tissue uptake at 1 h,"[4]; iv, Brain",0.05 %ID/g
same,tissue uptake at 0.5 h,"[4]; iv, Fat",0.54 %ID/g
same,tissue uptake at 1 h,"[4]; iv, Fat",0.26 %ID/g
same,tissue uptake at 0.5 h,"[4]; iv, Heart",0.11 %ID/g
same,tissue uptake at 1 h,"[4]; iv, Heart",0.22 %ID/g
same,tissue uptake at 0.5 h,"[4]; iv, Kidneys",1.01 %ID/g
same,tissue uptake at 1 h,"[4]; iv, Kidneys",0.45 %ID/g
same,tissue uptake at 0.5 h,"[4]; iv, Large intestine",0.25 %ID/g
same,tissue uptake at 1 h,"[4]; iv, Large intestine",0.37 %ID/g
same,tissue uptake at 0.5 h,"[4]; iv, Liver",0.15 %ID/g
same,tissue uptake at 1 h,"[4]; iv, Liver",0.1 %ID/g
same,tissue uptake at 0.5 h,"[4]; iv, Lungs",0.2 %ID/g
same,tissue uptake at 1 h,"[4]; iv, Lungs",0.14 %ID/g
same,tissue uptake at 0.5 h,"[4]; iv, Muscle",0.14 %ID/g
same,tissue uptake at 1 h,"[4]; iv, Muscle",0.12 %ID/g
same,tissue uptake at 0.5 h,"[4]; iv, Plasma",0.29 %ID/g
same,tissue uptake at 1 h,"[4]; iv, Plasma",0.15 %ID/g
same,tissue uptake at 0.5 h,"[4]; iv, Small intestine",0.3 %ID/g
same,tissue uptake at 1 h,"[4]; iv, Small intestine",0.19 %ID/g
same,tissue uptake at 0.5 h,"[4]; iv, Spleen",0.14 %ID/g
same,tissue uptake at 1 h,"[4]; iv, Spleen",0.09 %ID/g
same,tissue uptake at 0.5 h,"[4]; iv, Stomach",0.1 %ID/g
same,tissue uptake at 1 h,"[4]; iv, Stomach",0.21 %ID/g
same,tissue uptake at 0.5 h,"[4]; iv, Whole blood",0.2 %ID/g
same,tissue uptake at 1 h,"[4]; iv, Whole blood",0.1 %ID/g
same,Accumulation,[4]; mouse,"No accumulation in tissues, only in urine"
same,Clearance,[4]; mouse,Rapid renal clearance
same,In vivo stability,"[4]; mouse, iv",poor in vivo stability
same,Stability,[5],Rapidly degraded in vitro and in vivo.
